Data as given in patent publication US20170166934A1.

Experiments:
[1] = system: T1, wild type Penicillium oxalicum glucoamylase
T1 sequence: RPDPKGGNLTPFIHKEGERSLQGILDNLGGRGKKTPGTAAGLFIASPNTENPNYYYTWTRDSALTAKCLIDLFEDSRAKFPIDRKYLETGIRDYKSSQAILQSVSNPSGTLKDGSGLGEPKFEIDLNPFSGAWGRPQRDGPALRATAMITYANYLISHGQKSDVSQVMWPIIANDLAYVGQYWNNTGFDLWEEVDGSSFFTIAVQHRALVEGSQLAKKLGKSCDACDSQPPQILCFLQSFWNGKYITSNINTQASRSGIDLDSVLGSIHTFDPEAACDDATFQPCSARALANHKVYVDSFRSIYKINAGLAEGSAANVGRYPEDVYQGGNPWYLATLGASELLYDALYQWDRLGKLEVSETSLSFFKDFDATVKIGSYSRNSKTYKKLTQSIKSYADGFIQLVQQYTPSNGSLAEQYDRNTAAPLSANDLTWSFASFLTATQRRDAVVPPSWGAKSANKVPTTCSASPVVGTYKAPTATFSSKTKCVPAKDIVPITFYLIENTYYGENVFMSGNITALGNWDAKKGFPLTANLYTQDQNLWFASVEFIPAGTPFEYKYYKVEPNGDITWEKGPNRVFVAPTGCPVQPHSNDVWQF

[2] = target: wild type Penicillium oxalicum glucoamylase (Penicillium oxalicum); assay: cell-based or functional assay
[3] = target: Penicillium oxalicum glucoamylase variant PE001 (SEQ ID NO: 14 + K79V substitution) (Penicillium oxalicum); assay: cell-based or functional assay

Row | Substance | cleaved glucoamylase (ca. 60 kDa) on SDS-PAGE after overnight protease treatment at 4 °C [1] [%] | cleaved glucoamylase (ca. 60 kDa) on SDS-PAGE after overnight protease treatment at 32 °C [1] [%] | intact glucoamylase (ca. 70 kDa) on SDS-PAGE after overnight protease treatment at 4 °C [2] [%] | intact glucoamylase (ca. 70 kDa) on SDS-PAGE after overnight protease treatment at 32 °C [2] [%] | intact glucoamylase (ca. 70 kDa) on SDS-PAGE after overnight protease treatment at 4 °C [3] [%] | intact glucoamylase (ca. 70 kDa) on SDS-PAGE after overnight protease treatment at 32 °C [3] [%]
1 | aorsin | 60 | 90 | – | – | – | –
2 | aorsin (enzyme) | – | – | 40 | 10 | 100 | 100
3 | aspergillopepsin I | – | 10 | – | – | – | –
4 | aspergillopepsin I (enzyme) | – | – | 100 | 90 | 100 | 100
